Measurements published in patent US20240350835A1 (AMBRX, published 2024).

Legend:
[1] = target: T1, prostate specific membrane antigen (PSMA) (UniProt Q04609 1-750, limits assumed); assay: cell-based or functional assay
[2] = target: T1, prostate specific membrane antigen …; assay: FACS, HEK293 supernatants on LnCap cells expressing PSMA
Description: Example 2: Antibody Humanization-Parental mouse J591 (Liu et al., Cancer Research, 57, […], 1997) antibody was humanized by selecting human frameworks based on sequence identity with the mouse framework sequence. The light chain and heavy chain CDRs from the mouse antibody were grafted onto the human frameworks, respectively, and analyzed for binding to PSMA antigen. Humanized variants were generated by pairing four human heavy chain frameworks with six light chain frameworks. The variants were expressed transiently in HEK293 cells and the supernatants were tested for binding to the PSMA antigen expressed in LnCap cells by FACS. Table 4 describes a selected heavy chain variable region sequence and 4 light chain variable region sequences used for further studies. […] ID Nos: 8 and the light chain sequence of SEQ. […] ID Nos: 10 and the light chain sequence of SEQ. […] ID Nos: 12 and the light chain sequence of SEQ. […] ID Nos: 14 and the light chain sequence of SEQ. ID Nos: 15.

T1 sequence (Q04609 whole entry): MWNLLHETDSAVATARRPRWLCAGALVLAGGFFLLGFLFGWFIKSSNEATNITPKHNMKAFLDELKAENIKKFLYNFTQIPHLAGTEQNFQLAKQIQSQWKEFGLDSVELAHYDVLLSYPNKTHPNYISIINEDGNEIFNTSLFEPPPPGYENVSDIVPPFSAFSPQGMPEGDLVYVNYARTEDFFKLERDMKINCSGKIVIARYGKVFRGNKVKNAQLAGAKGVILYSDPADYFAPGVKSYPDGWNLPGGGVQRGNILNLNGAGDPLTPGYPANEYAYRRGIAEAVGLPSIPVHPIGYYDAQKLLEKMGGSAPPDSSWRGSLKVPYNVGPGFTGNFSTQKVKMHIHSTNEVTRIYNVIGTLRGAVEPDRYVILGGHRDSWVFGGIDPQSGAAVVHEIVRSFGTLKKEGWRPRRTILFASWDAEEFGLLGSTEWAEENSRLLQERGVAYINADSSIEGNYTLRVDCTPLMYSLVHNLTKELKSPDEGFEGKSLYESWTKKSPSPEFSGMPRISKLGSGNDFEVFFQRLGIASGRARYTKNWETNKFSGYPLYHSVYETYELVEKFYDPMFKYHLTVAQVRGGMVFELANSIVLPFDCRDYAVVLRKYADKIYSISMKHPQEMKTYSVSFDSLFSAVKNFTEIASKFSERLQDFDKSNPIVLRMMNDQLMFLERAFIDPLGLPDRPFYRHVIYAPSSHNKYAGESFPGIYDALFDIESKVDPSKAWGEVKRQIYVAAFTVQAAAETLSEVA

Binder	Cell Killing (%), C4-2 cell line [1] [%]	IC50 (nM), in vitro cell killing in C4-2 cell line (Cell Titer Glo, 96 h) [1] [nM]	binding result [2]
Humanized Anti-PSMA Antibody Variant 1 ADC, MMAF payload, Cleavable (Val-Citruline-PEG1) linker (antibody, human IgG1, kappa, V domains shown, para-acetyl phenylalanine (pAF) at position A114 (Kabat numbering; first residue of the heavy chain constant region), conjugated to cleavable (Val-Citruline-PEG1) MMAF drug-linker) VH: QVQLVQSGAEVKKPGASVKVSCKASGYTFTEYTIHWVRQAPGQRLEWMGNINPNNGGTTYNQKFEDRVTITRDTSASTAYMELSSLRSEDTAVYYCAAGWNFDYWGQGTTLTVSS VL: DIQLTQSPSFLSASVGDRVTITCKASQDVGTAVDWYQQKPGKAPKLLIYWASTRHTGVPSRFSGSGSGTEFTLTISSLQPEDFATYYCQQYNSYPLTFGGGTKVEIKR	91	0.066	
Humanized Anti-PSMA (full length) Variant 3 (antibody, human IgG1, kappa, V domains shown, Humanized J591 (CDR graft), full length; expressed transiently in HEK293 cells, supernatant tested by FACS on LnCap cells; also called humanized anti-PSMA variant 3) VH: QVQLVQSGAEVKKPGASVKVSCKASGYTFTEYTIHWVRQAPGQRLEWMGNINPNNGGTTYNQKFEDRVTITRDTSASTAYMELSSLRSEDTAVYYCAAGWNFDYWGQGTTLTVSS VL: DIQLTQSPSFLSASVGDRVTITCKASQDVGTAVDWYQQKPGKAPKLLIYWASTRHTGVPDRFSGSGSGTEFTLTISSLQPEDFATYYCQQYNSYPLTFGGGTKVEIKR			binds
Humanized Anti-PSMA (full length) Variant 2 (antibody, human IgG1, kappa, V domains shown, Humanized J591 (CDR graft), full length; expressed transiently in HEK293 cells, supernatant tested by FACS on LnCap cells; also called humanized anti-PSMA variant 2; Humanized Anti-PSMA Antibody Variant 2) VH: QVQLVQSGAEVKKPGASVKVSCKASGYTFTEYTIHWVRQAPGQRLEWMGNINPNNGGTTYNQKFEDRVTITRDTSASTAYMELSSLRSEDTAVYYCAAGWNFDYWGQGTTLTVSS VL: DIQLTQSPSFLSASVGDRVTITCKASQDVGTAVDWYQQKPGKAPKLLIYWASTRHTGVPSRFSGSGSGTEFTLTISSLQSEDFATYYCQQYNSYPLTFGGGTKVEIKR			binds
Humanized Anti-PSMA (full length) Variant 4 (antibody, human IgG1, kappa, V domains shown, Humanized J591 (CDR graft), full length; expressed transiently in HEK293 cells, supernatant tested by FACS on LnCap cells; also called humanized anti-PSMA variant 4) VH: QVQLVQSGAEVKKPGASVKVSCKASGYTFTEYTIHWVRQAPGQRLEWMGNINPNNGGTTYNQKFEDRVTITRDTSASTAYMELSSLRSEDTAVYYCAAGWNFDYWGQGTTLTVSS VL: DIQLTQSPSFLSASVGDRVTITCKASQDVGTAVDWYQQKPGKAPKLLIYWASTRHTGVPSRFSGSGSGTEFTLTISNLQPEDFATYYCQQYNSYPLTFGGGTKVEIKR			binds
Chimeric Anti-PSMA Antibody ADC, MMAF payload, Non-Cleavable (PEG3) linker (antibody, human IgG1, kappa, V domains shown, para-acetyl phenylalanine (pAF) at position A114 (Kabat numbering; first residue of the heavy chain constant region), conjugated to non-cleavable (PEG3) MMAF drug-linker) VH: EVQLQQSGPELVKPGTSVRISCKTSGYTFTEYTIHWVKQSHGKSLEWIGNINPNNGGTTYNQKFEDKATLTVDKSSSTAYMELRSLTSEDSAVYYCAAGWNFDYWGQGTTLTVSS VL: DIVMTQSHKFMSTSVGDRVSIICKASQDVGTAVDWYQQKPGQSPKLLIYWASTRHTGVPDRFTGSGSGTDFTLTITNVQSEDLADYFCQQYNSYPLTFGAGTKVEIKR	89.5	0.295	
Chimeric Anti-PSMA Antibody ADC, MMAF payload, Cleavable (Val-Citruline-PEG1) linker (antibody, human IgG1, kappa, V domains shown, para-acetyl phenylalanine (pAF) at position A114 (Kabat numbering; first residue of the heavy chain constant region), conjugated to cleavable (Val-Citruline-PEG1) MMAF drug-linker) VH: EVQLQQSGPELVKPGTSVRISCKTSGYTFTEYTIHWVKQSHGKSLEWIGNINPNNGGTTYNQKFEDKATLTVDKSSSTAYMELRSLTSEDSAVYYCAAGWNFDYWGQGTTLTVSS VL: DIVMTQSHKFMSTSVGDRVSIICKASQDVGTAVDWYQQKPGQSPKLLIYWASTRHTGVPDRFTGSGSGTDFTLTITNVQSEDLADYFCQQYNSYPLTFGAGTKVEIKR	89.5	0.047	
Chimeric Anti-PSMA Antibody ADC, MMAF payload, Short Cleavable (Valine-Citruline-Acetyl) linker (antibody, human IgG1, kappa, V domains shown, para-acetyl phenylalanine (pAF) at position A114 (Kabat numbering; first residue of the heavy chain constant region), conjugated to short cleavable (Valine-Citruline-Acetyl) MMAF drug-linker) VH: EVQLQQSGPELVKPGTSVRISCKTSGYTFTEYTIHWVKQSHGKSLEWIGNINPNNGGTTYNQKFEDKATLTVDKSSSTAYMELRSLTSEDSAVYYCAAGWNFDYWGQGTTLTVSS VL: DIVMTQSHKFMSTSVGDRVSIICKASQDVGTAVDWYQQKPGQSPKLLIYWASTRHTGVPDRFTGSGSGTDFTLTITNVQSEDLADYFCQQYNSYPLTFGAGTKVEIKR	94.5	0.049	
Chimeric Anti-PSMA Antibody ADC, MMAE payload, Short Cleavable (Valine-Citruline-Acetyl) linker (antibody, human IgG1, kappa, V domains shown, para-acetyl phenylalanine (pAF) at position A114 (Kabat numbering; first residue of the heavy chain constant region), conjugated to short cleavable (Valine-Citruline-Acetyl) MMAE drug-linker) VH: EVQLQQSGPELVKPGTSVRISCKTSGYTFTEYTIHWVKQSHGKSLEWIGNINPNNGGTTYNQKFEDKATLTVDKSSSTAYMELRSLTSEDSAVYYCAAGWNFDYWGQGTTLTVSS VL: DIVMTQSHKFMSTSVGDRVSIICKASQDVGTAVDWYQQKPGQSPKLLIYWASTRHTGVPDRFTGSGSGTDFTLTITNVQSEDLADYFCQQYNSYPLTFGAGTKVEIKR	82.5	0.425	
Chimeric Anti-PSMA Antibody ADC, MMAE payload, Non-Cleavable (PEG3) linker (antibody, human IgG1, kappa, V domains shown, para-acetyl phenylalanine (pAF) at position A114 (Kabat numbering; first residue of the heavy chain constant region), conjugated to non-cleavable (PEG3) MMAE drug-linker) VH: EVQLQQSGPELVKPGTSVRISCKTSGYTFTEYTIHWVKQSHGKSLEWIGNINPNNGGTTYNQKFEDKATLTVDKSSSTAYMELRSLTSEDSAVYYCAAGWNFDYWGQGTTLTVSS VL: DIVMTQSHKFMSTSVGDRVSIICKASQDVGTAVDWYQQKPGQSPKLLIYWASTRHTGVPDRFTGSGSGTDFTLTITNVQSEDLADYFCQQYNSYPLTFGAGTKVEIKR	62.5	10.2	
